Patent publication US20030170730A1, “Assay method, peptides and reagent kits for testing mrp-specific inhibitors” (priority 2000, published 2003)

Tests used:
ΔMRP1 = molecular target: T1, ΔMRP1 (Homo sapiens, UniProt P33527); assay: Restoration of ΔMRP1 transport activity by L0 peptides (vesicular LTC4 / NEM-GS uptake, Sf9 membranes); format: biochemical
T1 construct: An N-terminally truncated MRP1 (amino acids 281-1531); made in house; host or cells: baculovirus-infected Sf9 cells, membrane vesicles
T1 sequence (P33527 281-1531, stated change not applied): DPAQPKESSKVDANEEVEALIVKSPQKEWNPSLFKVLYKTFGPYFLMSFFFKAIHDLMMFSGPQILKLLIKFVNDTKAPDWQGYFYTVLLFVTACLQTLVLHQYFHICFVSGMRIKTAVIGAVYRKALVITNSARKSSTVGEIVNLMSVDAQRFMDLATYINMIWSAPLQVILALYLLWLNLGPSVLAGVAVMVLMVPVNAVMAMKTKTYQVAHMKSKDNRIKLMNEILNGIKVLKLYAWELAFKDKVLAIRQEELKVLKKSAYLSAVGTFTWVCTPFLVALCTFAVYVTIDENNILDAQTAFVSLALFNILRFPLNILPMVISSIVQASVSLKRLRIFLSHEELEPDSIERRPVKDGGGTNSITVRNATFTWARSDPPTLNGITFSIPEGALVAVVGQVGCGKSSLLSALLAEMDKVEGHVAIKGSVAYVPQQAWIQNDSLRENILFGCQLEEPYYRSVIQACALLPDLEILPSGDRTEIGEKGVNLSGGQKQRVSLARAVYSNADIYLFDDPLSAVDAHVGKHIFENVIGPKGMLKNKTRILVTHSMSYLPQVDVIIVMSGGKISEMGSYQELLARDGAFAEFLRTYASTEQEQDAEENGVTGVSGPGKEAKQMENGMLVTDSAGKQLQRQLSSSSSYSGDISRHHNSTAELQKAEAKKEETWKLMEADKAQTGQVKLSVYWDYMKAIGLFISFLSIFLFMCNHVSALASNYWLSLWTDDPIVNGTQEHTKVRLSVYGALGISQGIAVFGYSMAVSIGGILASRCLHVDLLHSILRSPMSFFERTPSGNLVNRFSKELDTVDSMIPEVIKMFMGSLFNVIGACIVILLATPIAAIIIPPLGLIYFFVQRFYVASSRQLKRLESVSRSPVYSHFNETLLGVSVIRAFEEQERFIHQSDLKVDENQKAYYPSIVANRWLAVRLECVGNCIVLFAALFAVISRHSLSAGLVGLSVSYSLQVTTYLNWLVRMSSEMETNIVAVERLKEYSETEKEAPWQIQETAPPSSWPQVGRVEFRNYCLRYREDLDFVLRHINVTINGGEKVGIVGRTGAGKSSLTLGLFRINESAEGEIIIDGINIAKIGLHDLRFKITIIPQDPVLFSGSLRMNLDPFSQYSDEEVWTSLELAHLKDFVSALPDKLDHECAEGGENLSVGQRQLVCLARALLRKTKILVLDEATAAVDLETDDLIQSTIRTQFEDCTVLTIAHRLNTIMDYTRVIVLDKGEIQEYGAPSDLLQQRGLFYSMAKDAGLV
Procedure: The obtained pCLTRX-L0 vector was cloned to E. coli BL21 (DE3) cells, which in turn were grown in TYBG antibiotic broth (10 g tryptone, 10 g yeast extract, 4 g glucose, pH 7.2, 100 μg/ml ampicillin, 25 μg/ml kanamycine) at 37° C. When OD(600) exceeded 1.1 cells were pelleted by centrifugation, suspended in M9 medium, the incubated at 28° C. for 30 min. Afterwards, expression was induced by IPTG for 2 hours. When the induction was finished, cells were pelleted by centrifugation and the pellet was washed with 20% sacharose, then suspended in a solution comprising 20% agarose, 10 mM Tris and 0.1 μg/ml lysosyme (pH 7.2) and incubated for 30 min at 4° C. then sonicated. The lysed cells were pelleted by centrifugation (20000 g, 20 min). The so obtained lysate was used in the further experiments, for studying the restoration of the transport activity.
In order to correctly determine the transport function of the different MRP1 proteins, we estimated the relative amount of transport-competent inside-out vesicles in the Sf9 membrane preparations [Bakos É. et al, (1998), see above], and corrected the transport rates according to the relative MRP1 expression levels, as determined by immunoblotting.

MRP1 variants = MRP1 variants (Homo sapiens, UniProt P33527); assay: Vanadate-dependent nucleotide trapping by MRP1 variants in Sf9 membranes; conditions: L0 peptide co-expressed with ΔMRP1
MDCKII-ΔMRP1 cells = assay: Immunolocalization of L0 co-expressed with ΔMRP1 in MDCKII monolayers (rescue to plasma membrane); format: cell-based; conditions: pool of puromycin resistant MDCKII-ΔMRP1 cells
From the text: L0 was detected by indirect immunofluorescence with mAb R1 (green color, light signal in the lateral membrane). […] The arrow head indicates the position where the section was made. Nucleic acids were counterstained with propidium iodide (red signal).
For expression of MRP1 variants in MDCKII cells, the L0MDR1 chimera, ΔMRP1, and MRP1Δ(223-232) were inserted as blunt-end fragments into the retroviral vector pCMV-neo as described [Bakos É et al, (1998), see above]. For co-expression experiments the L0 fragment was cloned into the pBabe-Puro-CMV vector (kindly provided by Dr. J. Wijnholds, The Netherlands Cancer Institute, Amsterdam, The Netherlands). This vector was generated by cloning the blunt-ended HindIII fragment from pCMV-neo (containing the CMV early promoter) into the blunt-ended BamHI site of the pBabe-puro vector [Morgenstern J. P., and Land, H. (1990) Nucleic Acids Res. 18, 3587-3596]. Cells were retrovirally-transduced as described before [Evers, R. Kool, M., van Deemter, L., Janssen, H., Calafat, J., Oomen, L. C., Paulusma, C. C., Oude Elferink R. P., Baas, F., Schinkel, A. H., and Borst P. (1998) J. Clin Invest. 101, 1310-1319]. MDCKII cells stably transduced with the pBabe-Puro or pCMV-neo vector were selected for 4-6 days in medium containing puromycin (3 μg/ml) or for 7 days in medium containing G-418 (800 μg/ml), respectively. […]

B1: L0: amino acids 204-281, representing the N-terminal linker region of MRP1, expressed as a separate peptide (protein, UniProt P33527 204-281, looked up, fragment)
chain: DPNPCPESSASFLSRITFWWITGLIVRGYRQPLEGSDLWSLNKEDTSEQVVPVLVKNWKKECAKTRKQPVKVVYSSKD
modifications: L0 linker region
notes: amino acids 204-281, representing the N-terminal linker region of MRP1, expressed as a separate peptide
For B1, the “uptake of LTC4 on co-expression with ΔMRP1” value (ΔMRP1; at 50 nM LTC4, Sf9 vesicles) was “about 90 % of MRP1”, the “uptake of NEM-GS on co-expression with ΔMRP1” value (ΔMRP1; at 50 μM NEM-GS, Sf9 vesicles) was “about 40 % of MRP1” and the “restoration of nucleotide trapping of ΔMRP1” value (MRP1 variants) was “the full activity was restored”. The “localization of L0 (mAb R1 staining)” value (MDCKII-ΔMRP1 cells) was “clear lateral plasma membrane staining”.
